Blank lines part the entries; values can stand above or below the binder they belong to.
Key:
[1] = biological target: T1, non-fluorescence protein-tagged PRL2 (human, UniProt Q12974-1 1-167); test: ITC; cell 20 uM PRL2, syringe 200 uM CNNM3 CBS protein, 25 C, 20 mM Tris-HCl pH 7.0, 50 mM NaCl, 1 mM TCEP; conditions: both partners purified
T1 construct: human PRL2, NP_001356788.1, residues 1-167; Subcloned into pET28a; the limits 1-167 are printed for human PRL2 in the same paragraph; also called non-CyPet-tagged PRL2; source: E. coli Rosetta (DE3), purified (Ni-NTA, SEC)
T1 sequence (looked up): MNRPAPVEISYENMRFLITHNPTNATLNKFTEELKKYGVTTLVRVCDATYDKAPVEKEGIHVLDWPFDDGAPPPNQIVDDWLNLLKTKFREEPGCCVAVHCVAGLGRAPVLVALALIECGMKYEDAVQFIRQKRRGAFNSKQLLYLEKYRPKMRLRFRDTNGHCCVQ

[2] = biological target: T2, PRL2 (residues 1-167) with CyPet at its N-terminus (human, UniProt Q12974-1 1-167); test: FRET or BRET; 30 nM CyPet-PRL2 mixed with serial dilutions of CNNM3 CBS-YPet (0-300 nM) in 96-well plates, TBS (50 mM Tris-HCl pH 8.0, 150 mM NaCl), R.T. 1 h, excitation 435 nm, emission 530 nm; conditions: both partners purified
T2 construct: human PRL2 (phosphatase of regenerating liver 2), NP_001356788.1, residues 1-167; GS linker between CyPet and PRL2; pET22c derivative; Methods and discussion sometimes call it YPet-PRL2; also called CyPet-PRL2; CyPet-PRL2 WT; source: E. coli Rosetta (DE3), purified (Ni-NTA, SEC); not shown: CyPet (monomeric mutation A206K), N-terminal, kept
T2 sequence (looked up): T1 sequence (looked up)

Kd [1]: 15.2 ± 5 nM
B1: non-YPet-tagged CNNM3 CBS domain (domain or fragment, human, UniProt Q8NE01 301-452, looked up)
chain: YSDLSKGVLRCRTVEDVLTPLEDCFMLDASTVLDFGVLASIMQSGHTRIPVYEEERSNIVDMLYLKDLAFVDPEDCTPLSTITRFYNHPLHFVFNDTKLDAVLEEFKRGKSHLAIVQKVNNEGEGDPFYEVLGLVTLEDVIEEIIRSEILDE
notes: CBS domain of human CNNM3, XP_011509259.1, residues 301-452; Subcloned into pET28a; the limits 301-452 are printed for the CBS domain in the same paragraph; also called non-fluorescence-tagged CNNM3; CNNM3 CBS protein; source: E. coli Rosetta (DE3), purified (Ni-NTA, anion exchange)

Kd [2]: 108 ± 16 nM
B2: CNNM3 CBS domain (residues 301-452) with YPet at its C-terminus (domain or fragment, human, UniProt Q8NE01 301-452, looked up)
chain: B1 chain
notes: CBS domain of human CNNM3 (cyclin M3), XP_011509259.1, residues 301-452; GS linker between the CBS domain and YPet; pET22c derivative; Methods and discussion sometimes call it CNNM3 CBS-CyPet; also called CNNM3-YPet; CNNM3 CBS-YPet; source: E. coli Rosetta (DE3), purified (Ni-NTA, anion exchange); not shown: YPet, C-terminal, kept

Reference: publication PMC7393355, “A FRET-based screening method to detect potential inhibitors of the binding of CNNM3 to PRL2” (Scientific Reports, 2020)
